From a protein production outcome set (Wang et al. 2014)

Experiment: label from the status in PepcDB records
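Further: failed if final PepcDB status was selected cloned or expressed and not failed if soluble or beyond.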

Row | Sequence | protein production
1 | MNRAREINYLNSIALHQPFGIVGVSGETGIGKTTVLNFVNPEGVFTVRVNISLRDSMESILYDLLHSLALSLEKVEEVSDLAKEVRKWITDEVSTIKGFSLGVSFGVNASLTHEKSIRPRFNFFKAREKLGELIKQTVQRKGKFLLIIDELDKEKKEDVLRVIDSIKNFIIMEDFVVILSLPFSIYREYAADRLRWNEAGNLENIFTDIVFVEPLKKLEIKELIIKRLGSYIELIEDGVLDIVADFSDGNPRDGLWILTKAIYDNIHKELLSKEDLINTINRTISEYTGLTLNLTENQKKAIRVLRGSVYSREKIIETLQKEGFKRTTAYSVMDQLLQKRILLVEKEGYRISGKFSYMEI | failed
2 | MNRDLPVLRALRSLPDKVVGEALVSNDAISMRYDVDASTGKVVRPSHDLYGQSISGKVLIFKNTKGGVATGWALLNLKSRGTAPIALVCDTTNPVFVQGAALAGLPIMDGFRESPRSAVRTGDVVELDGISGELKVLRRGAGGQLEHHHHHH | failed
3 | MNRHLIHRRDILDTLVADLQAQQPDHIAVTGDLVNIALVNEFAPARQWLESVGPADRVSLVPGNHDAYVRSTAHRFAETFPDYISGDDATPGFPYLRRREAIAIIGVSSAVPTAPLRATGWLGAPQRAALEALLQSLAGERVFKVLLIHHPLQSRSRHKRLTDAADLIALLQRHPVDLVLHGHDHVHATVRIDTPFGAIPVVGVPSASAMNDRHRPSAAYNLFKISEGNDGWRCLEHHHHHH | failed
4 | MNRICELLGIEHPIISGGMVWCSGWKLASAVSNCGGLGLIGAGSMHPDNLEHHIRSCKAATDKPFGVNVPLLYPEMDKIMEIIMREHVPVVVTSAGSPKVWTAKLKAAGSKVIHV | failed
5 | MNRILQQVANQYWFRVSLTVICCLATICLGVHQSYVWFSVSACLLILSIIWQVRLYRLHIKQVLFMIDALENNDSAFRFPEESGTPESKQINRALNRVGHILYNVKAETAQQEKYYKLILDFVSTGLLVLNDNGAVYQKNKEALRLLGLNVFTHVRQLSKVDATLMEKIESCCSGDKLQVVFHNERGTVNLSIRVSEINVHKEHLRILALNDINIELDEKEIDSWIRLTRVLTHEIMNSVTPITSLSDTLLSMVEDKDEEISHGLQTISATGKGLLAFVESYRKFTRIPTPEPSLFYLKAFIERMVELARHQNPCDHITFHTKIDPADLILHADENLISQVVINLLKNAIQAIGDQPDGQIDIQVYCNETEEVLIEIKNNGPVIPPEIVEHIFIPFFTTKEGGSGIGLSISRQIMRLSGGSLTLLPDNKETKFILKFK | failed
6 | MNRINYIRQAEKKYHDLCYEQYKLFETGSWLYKPVKTVMDLMDHFEGQNNLQVLDLGSGVGRNSIPIAQQIQNTSGTVTCVDLLDSALTKLKTYTKEHGVFEVIKTEQAAIENYYIVPNTYDYIVAVSSLEHVQSEEDLTNVLHSIKEGTKTGGINCLIINSNIQEIDLHTKEELDALIEINLPTEDMIHLLKSIYKEWKEIKVEIKELVYDIVRDEKQIQLKTNAITFVVQK | failed
7 | MNRKILVTGATGSNGTEIVKRLAAKNVQVRAMVRDFDRAKKIAFPNVEVVEGNFDRPETLLEALAEVDRAFLLTNSTERAEAQQLAFVDAARQNGVKHIVKLSQFAADAHSPVRFLRYHAAVEAAIQGSGMTYTFLRPNLFMQGLLNFQSTITSQNAFYAAISDAKVSVVDVRDIADVAVVALTETEHEGKIYNLTGPQALTHAEMAEQLSAALNRQIAFVDIPSEVMRDQLLNIGMPPWQADGVIEDYAHYRRNEAAAVSSGIQDAIGKEPRSFNTFACDYAAMFG | failed
8 | MNRKLRRANLKASEPTPHETGNVINYMRQGRYAEAAHLAKGLTERFPDHGFGWKILGICTLLLGQNGDALPLFLKAAGLLPDDPDIHCNIGIIYYELNQLNEAEYYCRYALKLRPNDAIAHNNLGNILSSLGRLDEAEACFRRAIENNPDLAQAHYNLGSALQALGRLEEAESCYRRATAIRPTYEEAYASLGNVLKEMGRLDEALESWKLSLAHQEDWTNALRRLTNPLLMDGDLTRGPEYPAADAAEGQPRQLSSHPAAASVESLDRKYRVPSHGHDGSAEAGAVAGRDENAPRPLRIVLVYPPLWQIPSADLAVPEGMPFGPPATAGGPVAISRELKTITQGVLSIAAQAKKAGHDVRVYNLFNAPWADIVALIAGTGADVYGVSAYNSNRRGMGALCALIRQYHPHAHITVGGPFATTLPLETLRYYRAIDTVVVGEGEETFMELLDHIRSHRPAVGIPGTAWRNGDEVALGPVRPRIGDLDTLASHFDYYSSNIVMTSRGCPSKCSFCGNPVLWGRKIRFYSTDYCIDMFRKALARLPVPYLMIADDTFTANQQRTLNMCDAIIGNKLDFLWSCSTRVDAMEDKVLHRMRRAGCQEIMIGVESGSPEILERIHKGITPEMVLTVTRAAKKYGMLVHYYMMVINRGETPDTLQASIDLIKAGRPNSYDLTPLMFLPGTEDYGHLCEQQGLTSDIFFRNDFMDISVERKRKKDLDTVMQHLYCSIGTIGGYEYTVAEREAVVEHLPDVPTVHVELANAYLRAGQLDKATAALTRAEELGFPIGNIILNQHACIALARNQIDTSLDFLERACRSFPDVTVKGNYDKLAAWIDSRTSGQVKPCLLCDSVRAQDFVFRADETAP | failed
9 | MNRLKNMSKYSDAKELASLTLGKKTEYANQYDPSLLQPVPRSLNRNDLHLSATLPFQGCDIWTLYELSWLNQKGLPQVAIGEVSIPATSANLIESKSFKLYLNSYNQTRFASWDEVQTRLVHDLSACAGETVTVNVKSLNEYTAEPIVTMQGECIDDQDIEIANYEFDDALLQGAAQGEEVSEVLHSHLLKSNCLITNQPDWGSVEIAYHGAKMNREALLRYLVSFREHNEFHEQCVERIFTDIMRYCQPQSLTVYARYTRRGGLDINPFRSSHQSAPNHNQRMARQ | not failed
10 | MNRLQGMELFVEVARTLSFGRAAENLAIPKSTLSRQVAELERSVGLRLLSRTTRRVELTEAGQLYFERCQRIVAEARIAHEELQNLVETPSGPLRVNMPADFGTDFLSEAFTEFSRRYPEVTFYLDLASPEHAERVFQTCDVSIEIGDLPDSTHIARLLGVLPAHLYASPDYLARHGEPQHPDDLPRHECIQFRAGTGRVTRWPLNSGERHVEITPGNRFSVNSVSMVRNLATLGAGIAILAPMGNVREDIESGRLKRILPDWLAGPFPVYAVTDTRMLPAKTRIFVEFLMERLSNKTLAGQNNPAFLNLR | failed
11 | MNRRKISALLLSCTLAMNISSFNEIVLADENKGEEVQKESHNESNCIAGDYHEVNNGNAKNTENTPVINGIKVNKQLIDINYSQGVTINPKYIVIHDTDNRQAGANAMANRNYFANHPNAKASAHYIIDEGNIIQALEDTWKGWHVGDGNNPNINNSTTIAIELCVNKENDFDKTLENGIELTKYLVNKYNIPAENVVMHRDASGKTCSRMMIEDRPSLWPYFKERISGGDGSLEDDGLKPKMQGKVTNASVLNVRESPSTSGRIVHKLNRNQVVGIYEELNGWYKIDYIDGVKKKYGYVSKDYISIINENPEDEETNGDIEIEKPSVSVNKQGIVKVNSALNMRSGPGSNYGVIGTLRNNDEVEIIKEVDGWYEIKFNGKSGYVSSQYIKVLDNESNEEKPVEPEKPSVSLNKQGVVKVNSALNMRSGPGSNYGVIGTLRNNDEVEIIKEVDGWYEIKFNGKSGYVSSQYIKVLDNESNEEKPVEPEKPSVSLNKQGVVKVNSALNMRSGPGSNYGVIGTLRNNDKVEIIKEVDGWYEIRFNGKVGYASKSYITIVNEGSNNGTDSVIKEGTVYGVSTNLNVRTGPGTSYQVIGYLLSGDKVKILGDENGWYKVQFNASTGTKNGYVSKDYIKV | failed
12 | MNRRVVIVTAVHGPSAPFLPEAYASLCAQELPDGWEWRWVIQEDGRTQDVRPHVPDDPRVVFHQGRHGRQGGPGVARTMALAHADGAYVKVLDADDRLTPGALARDLAALEADPSIGWATSRVLDLLPDGSTAGFPGDPAHGPIERGEVLDFWRANGFRAQVHPATLLVRRDLLLAVGGWMALPASEDTGLLLALNCVSRGWFTEDVGLLYRKWEGQETGQASHVDPAERDARMTVVEARARALASFGWRLPEGTGDFDHLEHHHHHH | failed
13 | MNRSFNIIISFKFIFWNMKSKPMNVIFDVLNEIHGFFGALWAGAALLNFLIKPQDKRQFERIGRFFLITSIITIITGIIIFAYIYLAPYQGNLFLVAAILRSSLDIRIRAFLNLIGGAFGLLAFGAGIVISNRIRLMVRVKEGDVTILELRNSVSNLSKISLVFLLISLAMMILAGSIAQVIT | failed
14 | MNRSRDKVRCALNHQNAGSIPVDFGSTAVTGIHCRIVEALRNYYGLAPRPVKIVDAFQMLGEIDAELAEKIGVDCIGIGGPKDIFDLDTTRMHEQTTPWGQRVLVPEAMDLTPDMRGDVYVYAGGDQNYPPSAVMPKGCYFINAIERQQPIEEDRLDPEDNVEEFGLLTENDLAYYCAEADKAYQTGRAVVASFGGTALGDVAFVPGMGLKQPKGIRSVVEWYMSTAMRQDYLHQVFEKEIDIAIANYEKLWAALGDKIDVVLTCGTDFGSQESQFCSIDTFRELWLPHYRRMNDWIHQHTTWKIFKHSCGAIIPILPGLIEAGFDIINPVQINAKDMDSRRLKEEFGSQLTFWGGGVDTQKILPFGTPDEIRRHVMGQCEILGRDGGFVFNAVHNVQANVPVDNVVAMFDALKDISLEHHHHHH | failed
15 | MNRVKDKRLWLSIVGITGLGLLSGLFSVNAREYYQALRLPSFAPPGWLFGPVWLVLYIFMGITFYFILVHPNKQQKKRMITLFILQFIANFFWTFFFFSLQNNLLSVIDISLLWLLLIIQQWDYLRYKLITRGWLMIPYILWVTFAAALNYSILFLN | not failed
16 | MNSCVLFAEVIQGPELRYTQENQMAVATMVVQFASLRSEEPPMSLRTVAWGNLGQKMHAECKVGDRLILEGRLKMDTIDRPEGFKEKRAELVVSRFYTVDGNIVDHPAQPAATVPVTPRVAPPPPEFEDISLDEVPFLEHHHHHH | not failed
17 | MNSEKDVMADASAMRTSMHALAVYGATPLFVLLWSGGAIFSRVGLSHASPFAFLTLRFVIALPLLAAIGVARRCMLPAPGTRVRVAVTGALMIGGYSISYLLALDFGMTPGVLATVLGVQPILTLLWMERRVSVARLAGLTLALAGLVTIVADSLMAARFSMAGWGAALAALACMTVGAIGQKGIRQAAVEILPLQYTVALAMCLLCVPFQPFRFEHVPGFFFPLLWMGIVISVVATLLFYRLIQAGNLVNVTSLFYLVPPVTVLLDFVALSNRPAPLALVGMIAIPVGLALAFRAGR | failed
18 | MNSELFQKLAKAQTDEERSWIVTESLLATLSPELAAAAWAAVVPHWFNAEILAALRPELQAQSSQLYTKLQALSFVEEFADRGHDVHDLTRNLMLKHLWQEHQDEFITLSQRAAEYFGRNNQQPETQIEWLYHLIVVDREWKGSEFWNLAQNWDNSFRVAELESLIAALLEQIAAERVETLAKAEVYYWAGKAKFRVYKAKEALERYEEALAFYRNIGVSEAPPVEARLGEANTLQAIGDVLQFLDRRTEALERYEEALAFYRDIGDRLGEANTLRAIGDVLQFLDRRTEALERYEEALAFYRDIGARLGEANTLQAIGDVLQFLKRSTEALERYEEALAFYRDIGDRLGEANTLRAIGDVLQFLDRRTEALERYEEALAFYRDIGARLGEANTLKAIGDVLQFLKRSTEALERYEEALAFYRDIGARLGEANTLRAIGDVLQFLDRRTEALERYEEALAFYRDIGDRLGEANTLRAIGDVLQFLKRSTEALERYEEALAFYRDIGDRLGEANTLRAIGDVLQFLKRSTEALERYEEALAFYRDIGDRLGEANTLQAIGILQDDLTVGLEYCQAALELYRQIGTKYSQSRNLIYFTSTILLKLERQTEAIDALNRAIELAKEIPYQYFVEDALAKLKKIQSSDSNI | failed
19 | MNSFPAQNLMLSATNANKDSGLRTSNAHWLHSCIAVPKTTGIDLSQEPPAEGVMVPQSHLFPPPIRDSRNDTETVKQKSVNQSPSKALKPKPQRKKRSVSNKSKKTPSIPETKREKKNLDINIDISSFDTSGVPPPVCSCTGVSRVCYKWGMGGWQSSCCTISISTYPLPMSTTRPGARLAGRKMSNGAYVKLLARLADEGYDLSHPLDLKNHWARHGTNKFVTIK | failed
